Experimental data taken from publication PMC9122904, “Insights into the client protein release mechanism of the ATP-independent chaperone Spy” (Nature Communications, 2022).

Legend:
Assay in all cases: BLI; Octet RED96; client biotinylated and loaded on streptavidin sensors; Spy or Spy variant in solution at 0.25, 0.5, 1, 1.5 and 2 μM; 40 mM HEPES, 150 mM NaCl, pH 7.5; Kd calculated as koff/kon
Details in all cases: both partners purified
Spy_(24-127) [1] = target: T1, Spy_(24-127) (UniProt P77754 47-150)
T1 construct: Spy chaperone, residues 24-127; source: E. coli BL21 (DE3), purified (Ni-NTA, cation exchange, SEC); not shown: His6, N-terminal, cleaved; SUMO, N-terminal, cleaved
T1 sequence (looked up): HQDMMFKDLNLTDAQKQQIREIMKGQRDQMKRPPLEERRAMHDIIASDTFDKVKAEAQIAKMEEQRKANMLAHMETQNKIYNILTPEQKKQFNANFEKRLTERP
In short: (§1)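 Client proteins were biotinylated with EZ-link NHS-biotin at a 1:1 molar ratio, loaded onto streptavidin sensors, and measured by biolayer interferometry on an Octet RED96. The loaded sensors were dipped into 40 mM HEPES, 150 mM NaCl, pH 7.5 holding the analyte protein at 0.25, 0.5, 1, 1.5 or 2 μM, then moved to buffer without it. Fitting the wavelength-shift association and dissociation curves in SigmaPlot 12.0 gave the observed association rate and koff, kon was taken from the observed rate plotted against analyte concentration, and Kd was calculated as koff/kon.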

Spy_(29-127) = target: T2, Spy_(29-127) (UniProt P77754 52-150)
T2 construct: Spy chaperone, residues 29-127; source: E. coli BL21 (DE3), purified (Ni-NTA, cation exchange, SEC); not shown: His6, N-terminal, cleaved; SUMO, N-terminal, cleaved
T2 sequence (looked up): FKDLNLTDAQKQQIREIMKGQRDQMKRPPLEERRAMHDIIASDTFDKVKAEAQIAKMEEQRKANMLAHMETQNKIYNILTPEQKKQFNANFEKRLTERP
In short: as §1

Spy_(27-124) = target: T3, Spy_(27-124) (UniProt P77754 50-147)
T3 construct: source: E. coli BL21 (DE3), purified (Ni-NTA, cation exchange, SEC); not shown: His6, N-terminal, cleaved; SUMO, N-terminal, cleaved
T3 sequence (looked up): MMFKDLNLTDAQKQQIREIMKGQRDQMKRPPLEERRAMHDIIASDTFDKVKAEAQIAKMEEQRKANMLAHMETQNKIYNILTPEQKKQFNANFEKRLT
In short: as §1

Spy_(27-130) = target: T4, Spy_(27-130) (UniProt P77754 50-153)
T4 construct: Spy chaperone, residues 27-130; source: E. coli BL21 (DE3), purified (Ni-NTA, cation exchange, SEC); not shown: His6, N-terminal, cleaved; SUMO, N-terminal, cleaved
T4 sequence (looked up): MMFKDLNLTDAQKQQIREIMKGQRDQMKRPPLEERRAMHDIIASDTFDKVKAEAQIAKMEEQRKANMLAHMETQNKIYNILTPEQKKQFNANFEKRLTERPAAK
In short: as §1

Spy_(1-124) = target: T5, Spy_(1-124) (UniProt P77754 24-147)
T5 construct: source: E. coli BL21 (DE3), purified (Ni-NTA, cation exchange, SEC); not shown: His6, N-terminal, cleaved; SUMO, N-terminal, cleaved
T5 sequence (looked up): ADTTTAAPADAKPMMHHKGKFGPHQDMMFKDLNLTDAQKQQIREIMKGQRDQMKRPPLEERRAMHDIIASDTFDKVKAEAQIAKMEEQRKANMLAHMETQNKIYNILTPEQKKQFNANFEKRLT
In short: as §1

Spy_(21-127) = target: T6, Spy_(21-127) (UniProt P77754 44-150)
T6 construct: Spy chaperone, residues 21-127; source: E. coli BL21 (DE3), purified (Ni-NTA, cation exchange, SEC); not shown: His6, N-terminal, cleaved; SUMO, N-terminal, cleaved
T6 sequence (looked up): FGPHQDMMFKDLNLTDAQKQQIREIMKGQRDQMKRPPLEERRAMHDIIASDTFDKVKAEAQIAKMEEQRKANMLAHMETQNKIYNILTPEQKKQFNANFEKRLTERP
In short: as §1

Spy_(24-127) [2] = target: T1, Spy_(24-127); remark: listed apart in the source
In short: as §1

[3] = target: T7, Spy wild type (Spy_(1-138)) (UniProt P77754 24-161)
T7 construct: Spy, ATP-independent periplasmic chaperone; also called WT; wt; source: E. coli BL21 (DE3), purified (Ni-NTA, cation exchange, SEC); not shown: His6, N-terminal, cleaved; SUMO, N-terminal, cleaved
T7 sequence (looked up): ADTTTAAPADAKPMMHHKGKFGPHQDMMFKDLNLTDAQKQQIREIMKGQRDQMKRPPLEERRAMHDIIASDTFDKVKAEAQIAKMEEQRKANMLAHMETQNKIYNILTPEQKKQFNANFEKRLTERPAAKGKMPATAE
In short: as §1

kon (Spy_(24-127) [1]): 227000 M⁻¹ s⁻¹
kon (Spy_(29-127)): 309000 M⁻¹ s⁻¹
kon (Spy_(27-124)): 314000 M⁻¹ s⁻¹
kon (Spy_(27-130)): 313000 M⁻¹ s⁻¹
kon (Spy_(1-124)): 203000 M⁻¹ s⁻¹
Kd (Spy_(21-127)): 1.98 µM
Kd (Spy_(24-127) [2]): 1.73 µM
Kd [3]: 0.643 µM
B1: Im7 H40W L53A I54A (natural protein)
chain: MELKNSISDYTEAEFVQLLKEIEKENVAATDDVLDVLLEWFVKITEHPDGTDAAYYPSDNRDDSPEGIVKEIKEWRAANGKPGFKQG
modifications: biotin (EZ-link NHS-biotin, 1:1 molar ratio of biotin to protein)
notes: Im7 (colicin E7 immunity protein) with H40W L53A I54A; Spy was made with an N-terminal His6-SUMO tag that was cleaved; also called Im7AAW; partially folded client; source: purified by a similar procedure to Spy
